Experimental data from the nanobody polyreactivity screen of Harvey et al. (2022).

experiment: yeast display, Sf9 membrane polyspecificity reagent, FACS + sequencing; frameworks hold sequencing errors
How it was run: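 Nanobodies came from a synthetic yeast display library in Saccharomyces cerevisiae BJ5465, induced with galactose for 36–48 hours and stained for 1 hour at 4 °C with 10% biotinylated, detergent-solubilized Sf9 membrane reagent. Cells were enriched on streptavidin microbeads and then FACS-sorted, with low and high (top ~1%) gates set on anti-HA fluorescence for expression and streptavidin fluorescence for reagent binding. Each polyreactivity label reflects the gate a clone came from. Genes were amplified by colony PCR, sequenced by MiSeq 2 × 250 and filtered by CDR length.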

| Sequence | polyreactivity (PSR sort gate) |
| --- | --- |
| QVHLVESGGGLVKAGGSLRLSCAASGISFGSNVMGLYRQAPGKERELVAAINYGGGSTYYADSVKGRFTISRDNAKNTVYLQMNSLKPEDTAVYYCAARGSRVYRYDYWGQGTQVTVSS | low polyreactivity |
| QVHLVESGGGLVKAGGSLRLSCAASGRTFYKYAKGWYRQAPGKEREFVADISSRGGSTYYEDSVKGRFTISRDNAKNTLYLQMNSLKPEDTAVYYCNSRRNSVRYNYWGQGTQVTVSS | high polyreactivity |
| QVHLVESGGGLVKAGGSLRLSCGASGSTFERYAMGWYRQAPGKERELVAAINWSGGGTYYADSVKGRFTSSRDNAKNTVYLQMNSLNPEDTAVYYCAGDSGTVVFSLWWYEYYYWGQATQVTVSS | low polyreactivity |
| QVHLVESGGGLVKAGGSLRLSCPASGFIFTLYAMGWYRQPPGKERELVASIRGSGGNTYYADSVKGRFTISRDNAKNTVYLQMNSLKPEDTAVYYCAAGYPYYYWTPYYYWGQGTQVTVSS | high polyreactivity |
| QVHLVESGGGLVLAGGSLRLSFAASGSTFDSYAMRCYRQQPGKQREFVAVINSGGSTNYADSVNGRFTISRDYSKNTVYLQMNSLKPEDTAVYYCAAEERYRWHYGGWGYWYDYWGQGTQVTVSS | low polyreactivity |
| QVHLVESGGGLVMAVGSLRLSCAASGFTFVGYAMGWYRQAPGKERELVATITRVGSTNYADSVKGRFTISRDNAKNTVYLQMNSLKPEDTAVYYCNTRRVYGHGKSPYDSWGQGTQVTVSS | low polyreactivity |
| QVHLVESGGGLVQAGGILRLSCAASGFTFIHYGMGWYRQAPGKERELVAAISSRGGRTYYADSVKGRFTISRDNAKNTVYLQMNSLKPEDTAVYYCNRDYAVISYGEYDSWGQGTEVTVSS | high polyreactivity |
| QVHLVESGGGLVQAGGILRLSCAASGRTFRYYAMGWYRQAPGKERELVAAISSGGSTNYADSVKGRFTISRDNAKNTVYLQMNSLKPEDSAVYYCADLWSGNKFNYWGQGTQVTVSS | low polyreactivity |
| QVHLVESGGGLVQAGGILRLSCAASGSTFGYYAMGWYRQAPGKERELVAAITWSGDSTYADSVKGRFTISRDNAKNTVYLQMNSLKPEDTAVYYCARRGFLGHWPRPSYDYWGQGTQVTVSS | low polyreactivity |
| QVHLVESGGGLVQAGGRLRLSCAASALTYAYYAMGRYREAPRKERELVAAITTGGTTNYADSVKGRFTISRDNAKNTVYLQMNSLKTEDTAVYYCARLYRSGYEYWGQGTQVTVSS | low polyreactivity |
| QVHLVESGGGLVQAGGRLRLSCAASGFIFWSNAMRWYRQAPGKERELVAAITWNGGDTYYADSVKGRFTISRDNAKNTVYLQMNSLKPEDTAVFYCAAVPSRRARYDYWGQGTQVTVSS | low polyreactivity |
| QVHLVESGGGLVQAGGRLRLSCAASGGTFYYIAMGWYRQAPGKERELVAAISWSGVSTSYADTVKGRFTISRDNEKNTVYLQMNSLKPEDTAVYYCAAGPFYYTGFEGDYWGQGTQVTVSS | high polyreactivity |
| QVHLVESGGGLVQAGGRLRLSCAASGSIFDDYAMGWYRQAPGKERELVAAITSGGSTYYADSVKGRFTISRDNAKNNVYLEMNSLKPEDTAVYYRATRYHWSSSFAPVGAYGYWGQGSQVTVSS | low polyreactivity |
| QVHLVESGGGLVQAGGSHRLSCAASGFIFKVNAMGWYRQAPGKERELVAAITGSGGSTYYADSVKGRFTISRDNAKNTVFLQMISLKPEDTAVYYCISLYDGYSTRLGFWGHGTQVTVSS | high polyreactivity |
| QVHLVESGGGLVQAGGSHRLSCAAYGRIFRANAKGWYRQAPGKERELVASITYSGGSTYYADSVKGRFTISRDNAKNTVYLQMNSLKPEDTAVYYCARAGISSGGYYYWGQGTQVTVSS | low polyreactivity |
| QVHLVESGGGLVQAGGSIRLSCAASGLIFYPYAMGWYRKAHGKEREFVAAITWSGGSTRYADSVKGRFTISLDNAKNTVYLQMNSLKPEDTAVYYCAARYIWWYDYTYTGLDYWGQGTQVSVSS | high polyreactivity |
| QVHLVESGGGLVQAGGSLLISCSASGSTFGTNAMGWYRQAPGKERDLVASITWSGGNTNYADSVKGRFTISRDNAKNTVYLQKKSMKPADTAVYYCAAEVFISYGVGGYYSDMDYWGQVTQVTVSS | low polyreactivity |
| QVHLVESGGGLVQAGGSLLLSCAASGSIFYFYAMGWYRQAPGKERELVAGITWRGGRTYYADSVKGRFTISRDNAKNTVDLQMIILKPEDTAVYYCAARFWSTYGYDSWGQGTQVTVSS | high polyreactivity |
| QVHLVESGGGLVQAGGSLLLSCDASGSIIKQYAMGWYRQAPGKERELVASIRWRDGSTYYADSVKGRFTISRDNAMNTVYLQMNSLKPEDTAVYYCAAYYCVWRYKYYYWGQGTQVTVSS | high polyreactivity |
| QVHLVESGGGLVQAGGSLLLSCSASGSIFTFNAMGWYRQAPGKERELVAAISSGGNTYYADSEKGRFTISRDNAKNSVYLQMNSLKPEDTAVYYCAAVRRTDGDGKYYYWGQGTEVTVSS | high polyreactivity |

| Sequence | polyreactivity (PSR sort gate) |
| --- | --- |
| QVHLVESGGGLVQAGGSLPLSCAATGRTFVYYAMGWYIQAPGKERELVAAITWTGGSTYYADSVKGRFTISRDTAKNTVYLHMNSMKPEDTAVYYFKAAVFRYRNEYDYWGQGTQVTVSS | low polyreactivity |
| QVHLVESGGGLVQAGGSLRFSCAASGSTFDDYAMGWYRQAPGKERELVAAISRSDGSTSYADSVKGRFTISRDNAKNTVYLQMNSLKPEDTAVYYCAADPVFKDDLWPVRVRVDYWGQGTQVTVSS | low polyreactivity |
| QVHLVESGGGLVQAGGSLRISCAASGRIFRRYAMGWYRQAPGKERELVAAITRSGGSTYYADSVKGRFTISRDNAKNTVYLQMNSLKPEDTAVYYCNAPSSLGTDYDYWGQGTQVTVSS | high polyreactivity |
| QVHLVESGGGLVQAGGSLRISCAASGSIFFPYAMGGYRQAPGKERELVAAISYSGTSTYYAASVKGRFTISRDNAKNTVYLQMNSLKPVDTAVYYCAAYSRYYASYDYWGQGTQVTVSS | high polyreactivity |
| QVHLVESGGGLVQAGGSLRLCCAASGRIFDHNTKGWYRQAPGKEMEFVAAITVSAGTTYYADSVKGRFTISSDNAKNTVYLQMNSLKPEDTAVYYCAAYYVYSYWDWGDYWGQGTQVTVSS | low polyreactivity |
| QVHLVESGGGLVQAGGSLRLICAASGGTLWVNTMGWYRQAPGKERELVAAISRRGGSTYYADSVKGRFTISRDNAKNTVYLQMNSLKPEDTAVYYCAKGYSSHYWWAYDSWGQGTQVTVSS | high polyreactivity |
| QVHLVESGGGLVQAGGSLRLICAASVFNLDWYVMGWNRQAPGKERQLVAAISSSGGRTYNADSVKGRFTISRDKAKNTVYLQMNSLKPEDTAVYYCAARNKYGGYPYGYDYWGQGTQVTVSS | high polyreactivity |
| QVHLVESGGGLVQAGGSLRLRCAASGIIYVRYAMGWYRHAPGKERELVAAISWSGGSTYYADSVKGRFTISRDNAKNTVYLQMNSLKPEDTAVYYCAADSHRTRGYARYFYWGQGTQVTVSS | high polyreactivity |
| QVHLVESGGGLVQAGGSLRLSCAASARTFTQNAMVWYRQAPGKERELVAAITRSGGSTYYADSVKGRFTISRDYAKNTVYLQMNSLKPEDTAVYYFIKYTHYYDYDYWGQGTQVTVSS | high polyreactivity |
| QVHLVESGGGLVQAGGSLRLSCAASASIFGSNAMGWYRQAPGKDRELVAAITWSDGSTYYADSVKGRFTISRDNAKNTVYLQMNSLKPDDTAVYYCSSDYGYSWYDYWGQGTQVTVSS | low polyreactivity |
| QVHLVESGGGLVQAGGSLRLSCAASGFIFPNNAMGWYRQAPGKERELVARISYGGGDTHYADSVKGRFTISRDNAKNTVYLQMNSLKPEDTAVSYCAVKDGQDDYWGQGTQVTVSS | low polyreactivity |
| QVHLVESGGGLVQAGGSLRLSCAASGFIFWGYAMGWYRPAPVHERELVAAISSDGDTYYADSVKGRFTISLDNAKNTVYLQMNCRKPEESAVYYCNADLYGGGDNSVISGLNGEYEYWGQGTQVTVSS | low polyreactivity |
| QVHLVESGGGLVQAGGSLRLSCAASGFLFDVYAMGWYRQAPGKERELVAAISRSGGSTYYADSVKGRFTISRDNAKNTVYLQMNSLKPEDTAVYYCATDLLNNVDYDYWGQGTQVTVSS | low polyreactivity |
| QVHLVESGGGLVQAGGSLRLSCAASGFPFADNAMGWNRQAPGKERELVAAISRRGGSTYYADSVKGRFTISRDNAKNTVYLQMNSLKAEDTAVYYCAALGNRYPYYYYYGSYYPVEYWGQGTQVTVSS | high polyreactivity |
| QVHLVESGGGLVQAGGSLRLSCAASGFTFIRYAMGWYRQAPGKEREFVAAISWRVGITYYADSVKGRFTISRDNAKNTVYLQMNSLKPEDTAVYYCARDYRNPPFAYEYWGQGTQVTVSS | low polyreactivity |
| QVHLVESGGGLVQAGGSLRLSCAASGFTFLVYAMRWYRKAPGKEREFVAAMNWSGDRTYYADSVKGLFTISREYAKNTVYLQMNSVKTEDTAVYYCAAVDYVYPQAYGYWGQGTQVTVSS | low polyreactivity |
| QVHLVESGGGLVQAGGSLRLSCAASGFTFRRYAMGWDRQAPGKERELVASISSGGSTNYADSVKGRCTISRDNAKNTVYLQMNSLIPEDTAVYYCAVSYRSFRYYWERYYSWGQGTQVTVSS | high polyreactivity |
| QVHLVESGGGLVQAGGSLRLSCAASGFTIYTYAMGGYRQAPGKERELVAAISSSGGSTSYADSVKGRFTISRDNAKITDYLQMNSLKPDDTALYYCNRGWRQQLGYWGQGTQVNVSS | high polyreactivity |
| QVHLVESGGGLVQAGGSLRLSCAASGFTLYYYMGWYRQAPGKERELVAGISNSGSTSYADSVKGRFTISRDNAKNTVYLQMNSLKPEDTAVYYCNAYYPAWYLDRYYYWGQGTQVTVSS | high polyreactivity |
| QVHLVESGGGLVQAGGSLRLSCAASGGIFPGYAMGRYRKAPGKERELVAAITKRGGRTYYADSVKGRFTISRDNAKNTVYLQMNSLKPEDTAVYYCAADYYAAYHLPDQDYDYWGQGTQVTVSS | high polyreactivity |
